The supplement of paper PMC9233669
Variants at the floor of the assay were thinned out.

Columns and labels:
biotinyl-Leu-oxazolone = assay: self-aminoacylation, catalytic enhancement (BLO) (fold over background); higher = more active; k-Seq, kA / k0A0; sequences stand for … in GGGAAUGGAUCCACAUCUACGAAUUC…UUCACUGCAGACUUGACGAAGCUG
How it was run: (§1)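 Each biotinyl-aminoacyl-oxazolone, at 2–1250 μM, was incubated with mutagenized RNA pools (0.43 μM) carrying a 21-nt variable region. The 50 μL reactions contained HEPES/NaCl/KCl/MgCl2/CaCl2 buffer with 5% acetonitrile at pH 6.9–7.0 and ran for 90 minutes at room temperature. After streptavidin capture, RNA was measured by qPCR in triplicate and by Illumina sequencing, and catalytic enhancement was calculated as median kA over the uncatalyzed rate from a pseudo-first-order fit of per-sequence fraction reacted.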

biotinyl-Ile-oxazolone = assay: self-aminoacylation, catalytic enhancement (BIO) (fold over background); higher = more active; k-Seq, kA / k0A0; sequences stand for … in GGGAAUGGAUCCACAUCUACGAAUUC…UUCACUGCAGACUUGACGAAGCUG
How it was run: as §1

biotinyl-Phe-oxazolone = assay: self-aminoacylation, catalytic enhancement (BFO) (fold over background); higher = more active; k-Seq, kA / k0A0; sequences stand for … in GGGAAUGGAUCCACAUCUACGAAUUC…UUCACUGCAGACUUGACGAAGCUG
How it was run: as §1

biotinyl-Trp-oxazolone = assay: self-aminoacylation, catalytic enhancement (BWO) (fold over background); higher = more active; k-Seq, kA / k0A0; sequences stand for … in GGGAAUGGAUCCACAUCUACGAAUUC…UUCACUGCAGACUUGACGAAGCUG
How it was run: as §1

biotinyl-Met-oxazolone = assay: self-aminoacylation, catalytic enhancement (BMO) (fold over background); higher = more active; k-Seq, kA / k0A0; sequences stand for … in GGGAAUGGAUCCACAUCUACGAAUUC…UUCACUGCAGACUUGACGAAGCUG
How it was run: as §1

biotinyl-Val-oxazolone = assay: self-aminoacylation, catalytic enhancement (BVO) (fold over background); higher = more active; k-Seq, kA / k0A0; sequences stand for … in GGGAAUGGAUCCACAUCUACGAAUUC…UUCACUGCAGACUUGACGAAGCUG
How it was run: as §1

Row | Sequence | self-aminoacylation (biotinyl-Leu-oxazolone) | self-aminoacylation (biotinyl-Ile-oxazolone) | self-aminoacylation (biotinyl-Phe-oxazolone) | self-aminoacylation (biotinyl-Trp-oxazolone) | self-aminoacylation (biotinyl-Met-oxazolone) | self-aminoacylation (biotinyl-Val-oxazolone)
1 | AUUCACCUGGGUCAUCGGGUU [Fam2.2 aminoacylation ribozyme variant] | 9.06 | 4.39 | 17.4 | 7.09 | 6.89 | 5.13
2 | AUUCACCUGGGUCAUCGGUUG [Fam2.2 aminoacylation ribozyme variant] | 1.4 | 1.25 | 3.76 | 1.62 | 0.904 | 1.44
3 | AUUCACCUGGGUCAUCUGGUG [Fam2.2 aminoacylation ribozyme variant] | 3.46 | 2.18 | 21 | 2.99 | 2.83 | 2
4 | AUUCACCUGUGUCAUCGGGUG [Fam2.2 aminoacylation ribozyme variant] | 15.7 | 5.71 | 28.1 | 8.96 | 10.8 | 6.51
5 | AUUCACCUUGGUCAUAGGGUG [Fam2.2 aminoacylation ribozyme variant] | 1.59 | 0.995 | 1.15 | 1.05 | 1.21 | 1.16
6 | AUUCACCUUGGUCAUCGGUUG [Fam2.2 aminoacylation ribozyme variant] | 0.855 | 0.9 | 0.347 | 0.806 | 0.844 | 1.06
7 | AUUCACCUUGGUGAUCGGGUG [Fam2.2 aminoacylation ribozyme variant] | 4.24 | 3.1 | 23.8 | 5.35 | 3.12 | 3.7
8 | AUUCACGAAGGUCAUCGGGUG [Fam2.2 aminoacylation ribozyme variant] | 11.3 | 5.12 | 89.6 | 8.81 | 10.5 | 6.74
9 | AUUCACGGAGGUCAUCGGGUG [Fam2.2 aminoacylation ribozyme variant] | 9.33 | 4.28 | 65.1 | 7.23 | 7.36 | 6.35
10 | AUUCACGUAAGUCAUCGGGUG [Fam2.2 aminoacylation ribozyme variant] | 20.4 | 9.9 | 148 | 13.3 | 18.3 | 10.4
11 | AUUCACGUAGGACAUCGGGUG [Fam2.2 aminoacylation ribozyme variant] | 5.61 | 3.6 | 24.5 | 5.55 | 5.02 | 4.37
12 | AUUCACGUAGGGCAUCGGGUG [Fam2.2 aminoacylation ribozyme variant] | 6.02 | 3.79 | 43.3 | 5.13 | 4.63 | 5.03
13 | AUUCACGUAGGUCACCGGGUG [Fam2.2 aminoacylation ribozyme variant] | 8.29 | 5.08 | 62.5 | 7.15 | 7.45 | 5.08
14 | AUUCACGUAGGUCAGCGGGUG [Fam2.2 aminoacylation ribozyme variant] | 3.04 | 2.48 | 16.1 | 2.71 | 2.52 | 2.48
15 | AUUCACGUAGGUCAUCGGGGG [Fam2.2 aminoacylation ribozyme variant] | 2.4 | 2.24 | 1.73 | 2.53 | 2.66 | 2.09
16 | AUUCACGUAGGUCAUCGGGUG [Fam2.2 aminoacylation ribozyme variant] | 7.22 | 4.22 | 53.2 | 6.49 | 6.62 | 5.15
17 | AUUCACGUAGGUCAUUGGGUG [Fam2.2 aminoacylation ribozyme variant] | 5.11 | 3.18 | 25.2 | 4 | 4.43 | 4
18 | AUUCACGUAGGUGAUCGGGUG [Fam2.2 aminoacylation ribozyme variant] | 4.12 | 2.91 | 20.3 | 3.33 | 3.98 | 3.52
19 | AUUCACGUAGGUUAUCGGGUG [Fam2.2 aminoacylation ribozyme variant] | 4.91 | 3.34 | 38.9 | 4.68 | 5.38 | 5.09
20 | AUUCACUUAAGUCAUCGGGUG [Fam2.2 aminoacylation ribozyme variant] | 12.4 | 5.72 | 71.7 | 9.67 | 8.88 | 5.11
21 | AUUCACUUAGGUCAUCGAGUG [Fam2.2 aminoacylation ribozyme variant] | 2.75 | 1.68 | 4.43 | 1.99 | 2.42 | 1.64
22 | AUUCACUUAGGUCAUCGCGUG [Fam2.2 aminoacylation ribozyme variant] | 15 | 6.03 | 94.5 | 11.1 | 11.7 | 6.11
23 | AUUCACUUAGGUCAUCGGAUG [Fam2.2 aminoacylation ribozyme variant] | 0.579 | 0.701 | 0.46 | 0.528 | 0.766 | 0.714
24 | AUUCACUUAGGUCAUCGGCUG [Fam2.2 aminoacylation ribozyme variant] | 1.17 | 1.46 | 4.69 | 1.45 | 1.47 | 1.65
25 | AUUCACUUAGGUCAUCGGGGG [Fam2.2 aminoacylation ribozyme variant] | 2.74 | 2.04 | 2.12 | 2.16 | 2.13 | 1.95
26 | AUUCACUUAGGUCAUCGUGUG [Fam2.2 aminoacylation ribozyme variant] | 0.869 | 0.779 | 0.821 | 0.747 | 0.802 | 0.777
